B1: human matrix metalloproteinase 9 (hMMP-9): mS38 (protein)
parent chain: MSLWQPLVLVLLVLGCCFAAPRQRQSTLVLFPGDLRTNLTDRQLAEEYLYRYGYTRVAEMRGESKSLGPALLLLQKQLSLPETGELDSATLKAMRTPRCGVPDLGRFQTFEGDLKWHHHNITYWIQNYSEDLPRAVIDDAFARAFALWSAVTPLTFTRVYSRDADIVIQFGVAEHGDGYPFDGKDGLLAHAFPPGPGIQGDAHFDDDELWSLGKGVVVPTRFGNADGAACHFPFIFEGRSYSACTTDGRSDGLPWCSTTANYDTDDRFGFCPSERLYTQDGNADGKPCQFPFIFQGQSYSACTTDGRSDGYRWCATTANYDRDKLFGFCPTRADSTVMGGNSAGELCVFPFTFLGKEYSTCTSEGRGDGRLWCATTSNFDSDKKWGFCPDQGYSLFLVAAHEFGHALGLDHSSVPEALMYPMYRFTEGPPLHKDDVNGIRHLYGPRPEPEPRPPTTTTPQPTAPPTVCPTGPPTVHPSERPTAGPTGPPSAGPTGPPTAGPSTATTVPLSPVDDACNVNIFDAIAEIGNQLYLFKDGKYWRFSEGRGSRPQGPFLIADKWPALPRKLDSVFEERLSKKLFFFSGRQVWVYTGASVLGPRRLDKLGLGADVAQVTGALRSGRGKMLLFSGRRLWRFDVKAQMVDPRSASEVDRMFPGVPLDTHDVFQYREKAYFCQDRFYWRVSSRSELNQVDQVGYVTYDILQCPED
B2: human matrix metalloproteinase 9 (hMMP-9): CST (1 mM) (protein)
parent chain: B1 parent chain

Key:
[1] = Western blot of culture media, 24 h; settings: glycan lost; control: wild type
[2] = gelatin zymography of secreted protein; settings: glycan lost; control: wild type
[3] = mCherry fluorescence in media, 32 h time course; settings: glycan lost; control: wild type
[4] = Western blot of cell lysate; settings: glycan lost; control: wild type
[5] = fluorogenic substrate kinetics with TIMP-1 titration; settings: glycan lost; control: wild type
[6] = mCherry co-localisation with organelle-targeted eGFP; settings: glycan lost; control: wild type
[7] = APMA or MMP-3 zymogen activation time course, Western; settings: glycan lost; control: wild type
[8] = mCherry fluorescence in media, 24 h; settings: glycan changed form; control: untreated
[9] = hMMP-9-mCherry fluorescence microscopy; settings: glycan changed form; control: untreated

| Protein | expression_or_secretion [1] | enzymatic_activity [2] | expression_or_secretion, fold_change [3] | expression_or_secretion [4] | other: inhibition by TIMP-1 [5] | localisation_or_trafficking [6] | other: proteolytic processing [7] | expression_or_secretion [8] | localisation_or_trafficking [9] |
| --- | --- | --- | --- | --- | --- | --- | --- | --- | --- |
| B1 | no change | no change | no change | no change | no change | no change | no change |  |  |
| B2 |  |  |  |  |  |  |  | decreases | changes |

— paper PMC4774645
